First the molecules themselves.
T1: human GIP receptor (human, UniProt P48546 22-466)
T1 sequence (looked up): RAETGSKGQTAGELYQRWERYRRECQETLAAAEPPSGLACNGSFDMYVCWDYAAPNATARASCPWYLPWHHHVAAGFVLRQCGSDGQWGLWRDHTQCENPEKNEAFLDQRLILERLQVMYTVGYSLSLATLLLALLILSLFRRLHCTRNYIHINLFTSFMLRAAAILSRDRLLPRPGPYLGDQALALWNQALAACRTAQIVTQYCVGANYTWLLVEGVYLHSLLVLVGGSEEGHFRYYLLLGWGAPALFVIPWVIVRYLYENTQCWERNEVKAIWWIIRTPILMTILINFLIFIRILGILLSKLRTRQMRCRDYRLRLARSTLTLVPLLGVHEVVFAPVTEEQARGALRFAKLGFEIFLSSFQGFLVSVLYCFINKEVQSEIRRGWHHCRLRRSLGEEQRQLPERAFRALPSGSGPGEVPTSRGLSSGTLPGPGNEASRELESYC

Bridges are numbered along the chain shown (N, C = ends). Where no end group is shown, it is not given here. [ ]: non-standard residue; d: D form. The star is where a group is joined. Acetyl(2-(4-imidazolyl)) = O=C(Cc1c[nH]cn1)*; Aib = CC(C)(N)C(=O)O

In one assay the target is human GLP-1 receptor (human, UniProt P43220 24-463). Put plainly: cell-based or functional assay.
For the molecule Y[Aib]QGTFTSDYSKYLDECAAKEFVQWLLDHHPSSGQPPPS (bridge 16-20) [Triple agonist of SEQ ID NO: 64], the “In vitro activity compared with native peptide (%) vs. GLP-1” value (“In vitro activity … (%) vs. GLP-1” for short) turned out to be 64.6%.

As to H[Aib]QGTFTSDVSKYLDGQAAKEFVAWLLKGC [Triple agonist of SEQ ID NO: 7], the “In vitro activity … (%) vs. GLP-1” value was 13.7%.

Take Y[Aib]QGTFTSDYSKYLDECRAKDFVQWLLDHHPSSGQPPPS (bridge 16-20) [Triple agonist of SEQ ID NO: 66]: the “In vitro activity … (%) vs. GLP-1” value came out at 15.8%.

Turning to Y[Aib]QGTFTSDYSKYLDEKRAKDFVQWLLDHHPSSGQPPPSC (bridge 16-20) [Triple agonist of SEQ ID NO: 76], the “In vitro activity … (%) vs. GLP-1” value was found to be 10.3%.

Y[Aib]QGTFTSDYSKCLDERAAKEFVQWLLDHHPSSGQPPPS (bridge 16-20) [Triple agonist of SEQ ID NO: 69]: the “In vitro activity … (%) vs. GLP-1” value is 24.3%.

Regarding {Acetyl(2-(4-imidazolyl))}-[Aib]QGTFTSDCSKYLDERAAQDFVQWLLDGGPSSGAPPPS [Triple agonist of SEQ ID NO: 63], the “In vitro activity … (%) vs. GLP-1” value is 15.3%.

Take H[Aib]QGTFTSDYSKYLDEKRQKEFVQWLLDTKC (bridge 16-20) [Triple agonist of SEQ ID NO: 78]: the “In vitro activity … (%) vs. GLP-1” value stood at 51%.

In the case of H[Aib]EGTFTSDYSIAMDEIHQKDFVDWLLAEKC (bridge 16-20) [Triple agonist of SEQ ID NO: 80], the “In vitro activity … (%) vs. GLP-1” value worked out at 8.1%.

Regarding Y[Aib]QGTFTSDYSKCLDEKRAKDFVQWLLDHHPSSGQPPPS (bridge 16-20) [Triple agonist of SEQ ID NO: 70], the “In vitro activity … (%) vs. GLP-1” value amounted to 15.1%.

In the case of Y[Aib]QGTFTSDYSKYLDEKAAKDFVQWLLDHHPSSGQPPPSC (bridge 16-20) [Triple agonist of SEQ ID NO: 77], the “In vitro activity … (%) vs. GLP-1” value came to 38.7%.

In the case of {Acetyl(2-(4-imidazolyl))}-[Aib]QGTFTSDYSKCLDEKRAKEFVQWLLDHHPSSGQPPPS (bridge 15-19) [Triple agonist of SEQ ID NO: 74], the “In vitro activity … (%) vs. GLP-1” value was found to be 12.9%.

On to {Acetyl(2-(4-imidazolyl))}-[Aib]QGTFTSDYSKYLDECRAKEFVQWLLDHHPSSGQPPPS (bridge 15-19) [Triple agonist of SEQ ID NO: 73], for which the “In vitro activity … (%) vs. GLP-1” value is 22.6%.

With Y[Aib]QGTFTSDYSKYLDEKAAKEFVQWLLDHHPSSGQPPPSC (bridge 16-20) [Triple agonist of SEQ ID NO: 75], the “In vitro activity … (%) vs. GLP-1” value is 35.1%.

For a further assay, the target named is T1, human GIP receptor. The experiment in a line: cell-based or functional assay.
In the case of Y[Aib]QGTFTSDYSKYLDECAAKEFVQWLLDHHPSSGQPPPS (bridge 16-20) [Triple agonist of SEQ ID NO: 64], the “In vitro activity compared with native peptide (%) vs. GIP” value (“In vitro activity … (%) vs. GIP” below) came out at 92.9%.

In the case of H[Aib]QGTFTSDVSKYLDGQAAKEFVAWLLKGC [Triple agonist of SEQ ID NO: 7], the “In vitro activity … (%) vs. GIP” value is < 0.1%.

Take Y[Aib]QGTFTSDYSKYLDECRAKDFVQWLLDHHPSSGQPPPS (bridge 16-20) [Triple agonist of SEQ ID NO: 66]: the “In vitro activity … (%) vs. GIP” value was determined as 17.2%.

Y[Aib]QGTFTSDYSKYLDEKRAKDFVQWLLDHHPSSGQPPPSC (bridge 16-20) [Triple agonist of SEQ ID NO: 76]: the “In vitro activity … (%) vs. GIP” value worked out at 11.7%.

As for Y[Aib]QGTFTSDYSKCLDERAAKEFVQWLLDHHPSSGQPPPS (bridge 16-20) [Triple agonist of SEQ ID NO: 69], the “In vitro activity … (%) vs. GIP” value came out at 62.8%.

As for {Acetyl(2-(4-imidazolyl))}-[Aib]QGTFTSDCSKYLDERAAQDFVQWLLDGGPSSGAPPPS [Triple agonist of SEQ ID NO: 63], the “In vitro activity … (%) vs. GIP” value is < 0.1%.

With H[Aib]QGTFTSDYSKYLDEKRQKEFVQWLLDTKC (bridge 16-20) [Triple agonist of SEQ ID NO: 78], the “In vitro activity … (%) vs. GIP” value worked out at 0.12%.

Turning to H[Aib]EGTFTSDYSIAMDEIHQKDFVDWLLAEKC (bridge 16-20) [Triple agonist of SEQ ID NO: 80], the “In vitro activity … (%) vs. GIP” value is 0.1%.

In the case of Y[Aib]QGTFTSDYSKCLDEKRAKDFVQWLLDHHPSSGQPPPS (bridge 16-20) [Triple agonist of SEQ ID NO: 70], the “In vitro activity … (%) vs. GIP” value is 64.4%.

Turning to Y[Aib]QGTFTSDYSKYLDEKAAKDFVQWLLDHHPSSGQPPPSC (bridge 16-20) [Triple agonist of SEQ ID NO: 77], the “In vitro activity … (%) vs. GIP” value is 35.5%.

Consider {Acetyl(2-(4-imidazolyl))}-[Aib]QGTFTSDYSKCLDEKRAKEFVQWLLDHHPSSGQPPPS (bridge 15-19) [Triple agonist of SEQ ID NO: 74], for which the “In vitro activity … (%) vs. GIP” value came to 1%.

Regarding {Acetyl(2-(4-imidazolyl))}-[Aib]QGTFTSDYSKYLDECRAKEFVQWLLDHHPSSGQPPPS (bridge 15-19) [Triple agonist of SEQ ID NO: 73], the “In vitro activity … (%) vs. GIP” value was determined as 3%.

As to Y[Aib]QGTFTSDYSKYLDEKAAKEFVQWLLDHHPSSGQPPPSC (bridge 16-20) [Triple agonist of SEQ ID NO: 75], the “In vitro activity … (%) vs. GIP” value turned out to be 18%.

Another assay deals with human GCG receptor (human, UniProt P47871 26-477). Put plainly: cell-based or functional assay.
Chain of human GCG receptor (P47871 26-477): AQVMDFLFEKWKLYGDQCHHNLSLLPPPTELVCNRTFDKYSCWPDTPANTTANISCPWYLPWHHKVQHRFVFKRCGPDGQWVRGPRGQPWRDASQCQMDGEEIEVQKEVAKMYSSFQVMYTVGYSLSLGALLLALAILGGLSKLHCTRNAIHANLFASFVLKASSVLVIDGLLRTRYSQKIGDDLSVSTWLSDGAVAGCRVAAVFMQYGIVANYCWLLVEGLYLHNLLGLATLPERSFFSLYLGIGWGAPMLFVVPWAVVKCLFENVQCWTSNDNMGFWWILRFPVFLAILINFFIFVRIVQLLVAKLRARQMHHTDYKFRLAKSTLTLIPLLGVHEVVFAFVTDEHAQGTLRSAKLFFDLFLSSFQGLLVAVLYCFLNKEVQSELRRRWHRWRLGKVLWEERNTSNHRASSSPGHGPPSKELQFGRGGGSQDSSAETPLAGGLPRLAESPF
For the molecule Y[Aib]QGTFTSDYSKYLDECAAKEFVQWLLDHHPSSGQPPPS (bridge 16-20) [Triple agonist of SEQ ID NO: 64], the “In vitro activity compared with native peptide (%) vs. Glucagon” value (“In vitro activity … (%) vs. Glucagon” for short) was determined as 60.1%.

In the case of H[Aib]QGTFTSDVSKYLDGQAAKEFVAWLLKGC [Triple agonist of SEQ ID NO: 7], the “In vitro activity … (%) vs. Glucagon” value is < 0.1%.

For Y[Aib]QGTFTSDYSKYLDECRAKDFVQWLLDHHPSSGQPPPS (bridge 16-20) [Triple agonist of SEQ ID NO: 66], the “In vitro activity … (%) vs. Glucagon” value was 172%.

In the case of Y[Aib]QGTFTSDYSKYLDEKRAKDFVQWLLDHHPSSGQPPPSC (bridge 16-20) [Triple agonist of SEQ ID NO: 76], the “In vitro activity … (%) vs. Glucagon” value amounted to 47.6%.

For the molecule Y[Aib]QGTFTSDYSKCLDERAAKEFVQWLLDHHPSSGQPPPS (bridge 16-20) [Triple agonist of SEQ ID NO: 69], the “In vitro activity … (%) vs. Glucagon” value is 9.6%.

Take {Acetyl(2-(4-imidazolyl))}-[Aib]QGTFTSDCSKYLDERAAQDFVQWLLDGGPSSGAPPPS [Triple agonist of SEQ ID NO: 63]: the “In vitro activity … (%) vs. Glucagon” value was < 0.1%.

H[Aib]QGTFTSDYSKYLDEKRQKEFVQWLLDTKC (bridge 16-20) [Triple agonist of SEQ ID NO: 78]: the “In vitro activity … (%) vs. Glucagon” value was 14%.

Consider H[Aib]EGTFTSDYSIAMDEIHQKDFVDWLLAEKC (bridge 16-20) [Triple agonist of SEQ ID NO: 80], for which the “In vitro activity … (%) vs. Glucagon” value turned out to be 0%.

As to Y[Aib]QGTFTSDYSKCLDEKRAKDFVQWLLDHHPSSGQPPPS (bridge 16-20) [Triple agonist of SEQ ID NO: 70], the “In vitro activity … (%) vs. Glucagon” value was 71.3%.

For Y[Aib]QGTFTSDYSKYLDEKAAKDFVQWLLDHHPSSGQPPPSC (bridge 16-20) [Triple agonist of SEQ ID NO: 77], the “In vitro activity … (%) vs. Glucagon” value was determined as 12.2%.

On to {Acetyl(2-(4-imidazolyl))}-[Aib]QGTFTSDYSKCLDEKRAKEFVQWLLDHHPSSGQPPPS (bridge 15-19) [Triple agonist of SEQ ID NO: 74], for which the “In vitro activity … (%) vs. Glucagon” value stood at 0.9%.

{Acetyl(2-(4-imidazolyl))}-[Aib]QGTFTSDYSKYLDECRAKEFVQWLLDHHPSSGQPPPS (bridge 15-19) [Triple agonist of SEQ ID NO: 73]: the “In vitro activity … (%) vs. Glucagon” value stood at 5.4%.

Consider Y[Aib]QGTFTSDYSKYLDEKAAKEFVQWLLDHHPSSGQPPPSC (bridge 16-20) [Triple agonist of SEQ ID NO: 75], for which the “In vitro activity … (%) vs. Glucagon” value came out at 8.5%.

The values are drawn from patent US20240024426A1, “HYPOTENSIVE PHARMACEUTICAL COMPOSITION COMPRISING TRIPLE ACTIVATOR HAVING ACTIVITY FOR ALL OF GLUCAGON, GLP-1, AND GIP RECEPTORS” (HANMI PHARM. CO., LTD., priority 2020, published 2024).
